B1: Twister Ribozyme (parent)
chain: AACACUGCCAAUGCCGGUCCCAAGCCCGGAUAAAAGUGGAGGGGGCGG

In the data set the parent is B1. The experiment in a line: self-cleavage, relative activity (ratio to wild type); higher = more cleavage; co-transcriptional.
On to C21U A34U, for which the self-cleavage amounted to 0.11.
The value for U6A A30C was 0.428.
Under A22C G36A stands 0.547.
The value for C15A G44A was 0.79.
On to G17C U37A, for which the self-cleavage worked out at 0.0865.
The value for G17C U37C was 0.0657.
Under C8U G44U stands 0.603; under C8G G43A, 0.137; under G16A G39U, 0.187.
The value for G13A G44C was 0.746; that for C3U G16C was 0.163; that for C3U G16U was 0.183.
Turning to A2U G48C, the self-cleavage was determined as 0.67.
Under G45C C46U stands 0.544; under C14A C19G, 0.359.
As for C8A G24A, the self-cleavage was 0.18.
The value for A23C A34U was 0.0811; that for C26G G43A was 0.128; that for C8A G39U was 0.123.
The value for G28U A30C was 0.968; that for C9A G45U was 0.232; that for C25A G38U was 0.0853.
C27U G44C: the self-cleavage is 0.777.
The value for C26G U31G was 0.348; that for A1U A11C was 0.0741.
The value for G36A G48C was 0.99; that for U6A G36C was 0.136.
Regarding C46G G48A, the self-cleavage was 1.
Under A1U C46U stands 0.0668; under A30C A33C, 0.676.
Under G16C G44A stands 0.803; under C25A G48A, 0.106; under C15U A34G, 0.806.
Under A4C C25U stands 0.058; under A11G G28C, 0.801; under A10U C14G, 0.244.
Regarding C5U C8U, the self-cleavage is 0.398.
Under A10U G38C stands 0.933; under U6A A11G, 0.897; under A4U A23C, 0.0467.
Under C3A C25A stands 0.0581; under C3G U6G, 0.015.
In the case of C25U C46G, the self-cleavage worked out at 0.762.
The value for G13C G24U was 0.0687; that for U31C A40G was 0.0669; that for G13U C27A was 0.0958.
The value for A30U G48U was 1.09; that for G24U G43A was 0.0702; that for C15G G29A was 0.104.
Under A1U C20A stands 0.0791; under G13A C15G, 0.118; under A10C G38C, 0.813.
A10C G38U: the self-cleavage amounted to 0.832.
The value for G24C C46A was 0.109; that for G28C U37C was 0.267; that for C14U G48U was 1.17.
The value for G29C G47U was 0.3; that for U12A C21G was 0.122; that for A2U C15G was 0.0661.
The value for A1G A2U was 0.19; that for A32C U37C was 0.494.
In the case of A4U G42A, the self-cleavage was 0.0876.
Under C26A G43C stands 0.111; under A10U A11G, 1.09.
The value for A10C A40C was 0.253; that for A35C G36C was 0.382; that for A1U G44U was 0.0595.
As to C20G A33C, the self-cleavage was 0.0661.
For the variant C25G A32G, the self-cleavage is 0.216.
Under C19A C25A stands 0.0869.
Under A1G C5U stands 0.328; under G29C U31G, 0.851.
The value for C8U C25U was 0.195.
As to C5G A35G, the self-cleavage amounted to 0.696.
Under C5G G24A stands 0.0701; under U6A U12G, 0.903; under C5A A22U, 0.249.
In the case of C26G A40G, the self-cleavage is 0.127.
Under C21G G36U stands 0.0888.
The value for G28U G47U was 0.567; that for A23U C46A was 0.325; that for C19A C27G was 0.073.
Under G38U G41C stands 0.149; under G45U G47A, 0.771; under A22C G48A, 1.01.
In the case of C21G G38U, the self-cleavage stood at 0.0824.
With A23U G36U, the self-cleavage came out at 0.0806.
The value for U37A G38U was 0.38; that for U12G G38A was 0.771.
Under G16C U31A stands 0.657; under A10U G29C, 0.617.
Under U6A G42U stands 0.163; under G42A G45A, 0.422; under C8A G17U, 0.0971.
Take G13C A23U: the self-cleavage amounted to 0.0457.
Consider A1C C8G, for which the self-cleavage amounted to 0.187.
Under C27U U31G stands 0.723; under C20A G41C, 0.0888; under C3U C27A, 0.159.
Under C19G A33C stands 0.0963; under A4G A11G, 0.96.
Under C26A G28C stands 0.48; under C25U A40C, 0.109.
Consider A2G C8U, for which the self-cleavage was 0.194.
The value for A22U A32C was 0.859; that for G28C G45U was 0.349; that for U12C C19G was 0.428.
The value for U18G G44U was 0.0806; that for A32G A33G was 0.654; that for A34G G44A was 0.809.
As for A33C G41A, the self-cleavage is 0.309.
Turning to A23G G36U, the self-cleavage came to 0.0865.
Under G38U G47A stands 0.564.
As to C5U G45U, the self-cleavage turned out to be 0.423.
On to C20U A33C, for which the self-cleavage was found to be 0.894.
The value for C5A C9U was 0.0659; that for C5A C9A was 0.123; that for A2G U37C was 0.0955.
Under G16U G42C stands 0.25; under C15U U37G, 0.568; under C15U U37A, 0.559.
For the variant C21U G42U, the self-cleavage came out at 0.0927.
Turning to C8G A33G, the self-cleavage stood at 0.232.
The value for A11C A35C was 0.886; that for C5A G24C was 0.0665; that for G41U G43A was 0.163.
The value for C19G C27A was 0.0851.
Turning to A22G C46A, the self-cleavage is 0.227.
The value for C25G G42C was 0.18.
Under C25U U37A stands 0.392.
For the variant A2G C3A, the self-cleavage is 0.171.
Under A23G U31G stands 0.746.
Under C25A A33U stands 0.0752; under C9A A40C, 0.108; under C3G A30C, 0.167.
Under A4G stands 1; under U12A G38U, 1.01; under C3A G48C, 0.251.
On to C27A A30C, for which the self-cleavage was determined as 0.12.
The value for A23C G48U was 0.181.
For A2U U18G, the self-cleavage was found to be 0.0917.
Under A2U U18A stands 0.0781; under U37A G41A, 0.16.
Regarding C9U C26G, the self-cleavage is 0.0629.
As to C19U C27G, the self-cleavage was found to be 0.0975.
The value for G24C A32U was 0.13.
The value for A2G G24A was 0.082; that for C9G C21A was 0.0451; that for G7U C20G was 0.0693.
The value for G17A C19U was 0.281.
With G17A C19G, the self-cleavage was 0.14.
Under C15G G28C stands 0.599; under U31A A32C, 1.09.
The value for A11C G38C was 0.731.
The value for C5U A33G was 0.631; that for A10C A11G was 1.12.
With C25A G36A, the self-cleavage turned out to be 0.0755.
Under C9U U37C stands 0.122.
The value for A4C G7C was 0.0903; that for U18C C20A was 0.0953.
The value for G28U G42A was 0.26; that for A33U G38C was 0.77; that for A33G was 0.96.
For A2C A30C, the self-cleavage came out at 0.0338.
The value for U18A C26G was 0.124; that for G36A G38U was 0.193.
U12G C25A: the self-cleavage worked out at 0.256.
